How the values were obtained:
[1] = molecular target: T1, Arylacetonitrilase from Alcaligenes faecalis (NitAF) (Alcaligenes faecalis, UniProt P20960); test: ammonia release, Michaelis-Menten; type: biochemical; conditions: 50 mM buffer pH 7.5, 10% methanol, 30 °C, 0.5-30 mM substrate
T1 construct: full-length with C-terminal His6 tag (tag kept), vector pTrc99A-derived, E. coli BL21(DE3), Ni-NTA; 1071 bp, 357 amino acids printed; subunit about 32 kDa by SDS-PAGE, native about 460 kDa (homo-oligomer)
Description: (§1) ammonia release, Michaelis-Menten on Arylacetonitrilase from Alcaligenes faecalis (NitAF)

N#CCc1ccccc1 = test: ammonia release, Michaelis-Menten; type: biochemical, Alcaligenes faecalis; conditions: 50 mM buffer pH 7.5, 10% methanol, 30 °C, 0.5-30 mM substrate
Description: as §1

T1 sequence (P20960 whole entry): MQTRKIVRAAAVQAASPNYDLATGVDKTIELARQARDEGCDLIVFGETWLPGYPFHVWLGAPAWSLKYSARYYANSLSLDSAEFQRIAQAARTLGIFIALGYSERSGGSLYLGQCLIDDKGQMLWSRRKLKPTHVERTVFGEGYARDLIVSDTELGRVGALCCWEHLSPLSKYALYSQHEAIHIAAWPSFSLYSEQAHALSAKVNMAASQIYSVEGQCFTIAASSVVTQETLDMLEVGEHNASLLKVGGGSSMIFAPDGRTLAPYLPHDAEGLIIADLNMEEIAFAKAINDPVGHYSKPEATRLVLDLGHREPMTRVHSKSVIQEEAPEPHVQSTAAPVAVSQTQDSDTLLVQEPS

Compound | Km [1] [µM] | Km (N#CCc1ccccc1) [µM] | kcat (N#CCc1ccccc1) [s⁻¹] | kcat/Km (N#CCc1ccccc1) [M⁻¹ s⁻¹]
N#CCc1ccccc1 [phenylacetonitrile] | 860 ± 70 | – | – | –
Arylacetonitrilase from Alcaligenes faecalis (NitAF) (Alcaligenes faecalis; F140A) | – | 4200 ± 410 | 15.6 ± 1.2 | 3710
Arylacetonitrilase from Alcaligenes faecalis (NitAF) (Alcaligenes faecalis; F140G) | – | 24100 ± 2200 | – | –
Arylacetonitrilase from Alcaligenes faecalis (NitAF) (Alcaligenes faecalis; F140H) | – | 890 ± 100 | 63.5 ± 4.7 | 71400
Arylacetonitrilase from Alcaligenes faecalis (NitAF) (Alcaligenes faecalis; F140L) | – | 2130 ± 210 | 38.8 ± 3.8 | 18200
Arylacetonitrilase from Alcaligenes faecalis (NitAF) (Alcaligenes faecalis; F140V) | – | 2950 ± 320 | 25 ± 2.4 | 8480
Arylacetonitrilase from Alcaligenes faecalis (NitAF) (Alcaligenes faecalis; F140W) | – | 1450 ± 120 | 143 ± 12 | 98600

— article PMC7660301, “Phe-140 Determines the Catalytic Efficiency of Arylacetonitrilase from Alcaligenes faecalis” (International Journal of Molecular Sciences, 2020)
